Laboratory results published in patent US20190204338A1 (PHYLOGICA, published 2019).
Where no end group is shown, it is not given here. His tag = polyhistidine tag from vector pDEST-HisMBP; MBP = not defined here

Legend:
[1] = biological target: T1, MBP-MAP4K4-CNH (biotinylated, immobilised) (human, UniProt P0AEX9 27-392 = MBP; O95819 926-1213, limits assumed, biotinylated (site not given)); assay: BLI (Octet-RED), titration, compared with MBP-RAP2A in the same system
T1 construct: 45 ug/ml on streptavidin biosensors; also called CNH domain of MAP4K4; biotinylated MAP4K4-CNH
Method: (§1) Data were acquired with the Data Acquisition software version 6.2 and all steps/dilutions were performed in baseline buffer (PBS pH 8.0) at a rotation rate of 1000 rpm.

[2] = biological target: T1, MBP-MAP4K4-CNH (biotinylated, …); assay: BLI (Octet-RED), single concentration 1 uM, local 1:1 fit, immobilised biotinylated MAP4K4-CNH
Method: as §1

[3] = biological target: T1, MBP-MAP4K4-CNH (biotinylated, …); assay: BLI (Octet-RED), titration 100-1000 nM, global 1:1 fit, immobilised biotinylated MAP4K4-CNH
Method: as §1

B1: MBP-25C3 (Phylomer 25C3 expressed as a His-MBP tagged fusion) (peptide)
chain: {His tag-MBP}-LGAAGPTHYDHLDCAR
modifications: reading uncertain; also: linker between MBP and peptide not given here
notes: Purified as monomeric protein; also called 25C3 fusion peptide; not shown: His tag of vector pDEST-HisMBP
For B1, the “fold lower binding affinity than RAP2A” value [1] was 5 fold, the Kd [2] was 23.5 nM and the koff [2] was 4.4e-05 s⁻¹. It also gave a Kd [3] of 28 nM and a koff [3] of 0.0001 s⁻¹.
